{"source": "the DeepSol protein solubility set"}
{"experiment": "soluble on expression in E. coli; label from the status in PepcDB or PDB records"}
{"sequence": "MGSDKIHHHHHHMSKIVALYNNKGGVSKTTTNFNLGVYLSQQGKRVLMVDCDPQCNLTELFFASRDDLEEPDVQLPGTSIYDALLPRFKGHQGRIEQSGIEVSEHSLYSSLFLFRGDLEFSRAETYLGTSWSQAVTENIHEKNTYIVFNKLMKDIGSARGYDYILCDVGPSTGAITKTVIISCDEIVIPLVPDRFCYQAVKLLGSVISEWIENHKIISDSLVPFGIEPFEGNPKLAGTVLQNFKVHAGSKVKESYIKWQKKITEEIQSSLCKENGFSPKVGFNIEEPYTASIKDVAVLAPVAQLFGRAIFDIEQEHTKEASSNGQMYYGTVWQPWLDRMSEYKEEIAKIAEAIS", "soluble on expression in E. coli": "not soluble"}
{"sequence": "SLVCKNALQDLSFLEHLLQVKYAPKTWKEQYLGWDLVQSSVSAQQKLRTQENPSTSFCQQVLADFIGGLNDFHAGVTFFAIESAYLPYTVQKSSDGRFYFVDIMTFSSEIRVGDELLEVDGAPVQDVLATLYGSNHKGTAAEESAALRTLFSRMASLGHKVPSGRTTLKIRRPFGTTREVRVKWRYVPEGVGDLATIAPSIRAPQLQKSMRSFFPKKDDAFHRSSSLFYSPMVPHFWAELRNHYATSGLKSGYNIGSTDGFLPVIGPVIWESEGLFRAYISSVTDGDGKSHKVGFLRIPTYSWQDMEDFDPSGPPPWEEFAKIIQVFSSNTEALIIDQTNNPGGSVLYLYALLSMLTDRPLELPKHRMILTQDEVVDALDWLTLLENVDTNVESRLALGDNMEGYTVDLQVAEYLKSFGRQVLNCWSKGDIELSTPIPLFGFEKIHPHPRVQYSKPICVLINEQDFSCADFFPVVLKDNDRALIVGTRTAGAGGFVFNVQFPNRTGIKTCSLTGSLAVREHGAFIENIGVEPHIDLPFTANDIRYKGYSEYLDKVKKLVCQLINNDGTIILAEDGSFHHHHHH", "soluble on expression in E. coli": "soluble"}
{"sequence": "MKFGTVWKYYFTESLLKATIRTPSQLNLAPNALRPVLDQLCRLFPQNPTVQIRPIRLAGVRGEEIKAQASATQLIFHIHGGAFFLGSLNTHRALMTDLAARTQMQVIHVDYPLAPEHPYPEAIDAIFDVYQALLVQGIKPKDIIISGDSCGANLALALCLRLKQQPELMPSGLILMSPYLDLTLTSESLRFNQKHDALLSIEALQAGIKHYLTDDIQPGDPRVSPLFDDLDGLPPTLVQVGSKEILLDDSKRFREKAEQADVKVHFKLYTGMWHNFQMFNAWFPEAKQALADIAEFAHSLDLD", "soluble on expression in E. coli": "soluble"}
{"sequence": "MGSDKIHHHHHHMNKKSSLNNLLYIQEHRSCRNYLEKVENGFKYIEFSHEEVILEKEISWNYLLFVLEGECIINCNQFRERLFQANCMVLLPKTAMVEIKVIAGTRLLSLSFDVPLNVCDKFILQSLTGLCRKLDYNFQSLAIRYPLPPYLEIVTYCLTNKMDCGHFHTLLQQELFFLLRGFYLKEELALLFHPIISAELTFKDFVIGNYFKVSNVNDLISLSNMCKSSFYCKFKEVFGMTAKQWLLKQRNTHILNKVMTSETTVGELMEEFRFESQAHFTHYCKQHFNCTPRELIMKYQVVNQ", "soluble on expression in E. coli": "not soluble"}
{"sequence": "MKLPVPSPMRLAVTHEGRSIIYIPSPEYAVASGRLEPAWLEVFYNPAMEFNRDVSVVAASALRRTGLLTRSGVAFDAHAGVGVRGVRYAVEAGYVKVIMNDINPKASMLAALNARANGLEPGSYMIFNKESNSLMFHLSRERPTPVSLIDIDPYGSPAPFVDAALALSGKGTVVAMTATDLAVLEGGKARAAVRRYMLRSVSKTPVSKETGLRVLLGYVARVAAAHDKAVKPLLAYYADHYYRVYVAVERGARRSDSMLEENLGRLVYCPETGVALALSYAEDPASACGGSYVVAADPAWIGSLGDQAFLEAMLNIAVEAVWLGTRPRVEKLLNTLHGEAPLSPRSIYVSLTSVASKARVNTPKKSKVVELLRSMGYRAVATHFSGEGVRTDAPWGEVLEAVVKLGSSG", "soluble on expression in E. coli": "soluble"}
{"sequence": "MPVLHNRISNDELKAKMLAESEPRTTISFYKYFTIASPQQTRDALYQVFTALDVFGRVYLAHEGINAQISVPQSKLETFRQQLYTFDPALDGVRLNIALEDDGKSFWVLRMKVRDRIVADGIDDPTFDASNVGDYLKAADVNAMLDDPDAVFIDMRNHYEYEVGHFENALEIPADTFREQLPKAVEMLREHADKKIVMYCTGGIRCEKASAWMKHNGFNKVWHIEGGIIEYARRARAQGLPVRFIGKNFVFDERMGERISDEVIAHCHQCGASCDSHTNCKNDGCHLLFIQCPQCASKFNGCCSEQCCEELALPEEEQRRRRAGRENGNKIFNKSRGRLNSKLSIPDPAE", "soluble on expression in E. coli": "not soluble"}
{"sequence": "MDRVDVVADLNDPLSCFPDDSVIEIYAHHVLEHVRNFIQLMQEVHRVCMRDSTVTIVVPHYSNQLAYSDPTHVRFFGLYTMCYFVERVFQPFKRKVPDFYIKEKFLLCEVVYDFEPKNTFLGRLFTRRVQLFINANPKRQEFYERYLCRFFPVASVRYVLSPVKLEHHHHHH", "soluble on expression in E. coli": "soluble"}
{"sequence": "MSLFQVPDSEGGRAGSRAMKPPGGESSNLFGSPEEATPSSRPNRMASNIFGPTEEPQNIPKRTNPPGGKGSGIFDESTPVQTRQHLNPPGGKTSDIFGSPVTATSRLAHPNKPKDHVFLCEGEEPKSDLKAARSIPAGAEPGEKGSARKAGPAKEQEPMPTVDSHEPRLGPRPRSHNKVLNPPGGKSSISFYEGHHHHHH", "soluble on expression in E. coli": "soluble"}
{"sequence": "MAAHSFPLLRLPPKNLASVLRQVEIIEQIGLSLLSNKTKEYIRKFCDFKGFELSVWLHPYAVELELFKNGEGATHCSFRDGRACEHNEYPDGFTFDASQFFDMKSCLKHLLYILNPSKIAFLFYIQSNEVSDESQFQMTVDCLKGVKILKFSAKCIPQMNHIVRLVNAFPQTNRLSLVKNSNQPFQLSTLRQILHRKIQKLNLVIDITLNELLLNNSATSDFYSERLRGKDINLFLKHWAAGLKPELEYISFQISAVNFVESTILAGIPH", "soluble on expression in E. coli": "not soluble"}
{"sequence": "MAHHHHHHMRRTVVQRVAPWVPPPRHDIKVTMPPPPGGEVGGRFGVSQGYSDRLARTPYWKRMALSTYKLRMMENATRYPMSEHRPGEYDIRYLPTPYPCTIRNRPLLEVGEPRQIPSIRIPVIFLVNLFDEAKGCWFGRRYETVYVERQFMREELMPQRYAIYATPEAYKLLGLPVVNHHTHEEIPKTPREYEKLLERQRYDEERWKYTIEYLFRKYEDGPPELLDRPEDGWDGSEEIALSSVAGAGRDGVVSQRKGPVKQRKARKIKLF", "soluble on expression in E. coli": "not soluble"}
{"sequence": "MSREQAILVGCQLAGVDDERFRYSMEELVSLVATANGEVVAEVTQKREAPHPATYIGKGKTEELAAIVKQLEPDVVIFNSELSPSQARNLTKMLGEVKVIDRT", "soluble on expression in E. coli": "not soluble"}
{"sequence": "MSLQKQRFCLDTTAITDSDVRKSLGVSNISESAEKIMDIIAQARVQLDISCHIPYDTVYKELVGFLTREGCAPETLIKVDTWLVKKTPNRYEIKIPAEIFYEYIKDLRERINKGMRISENAMYETALEAYILSKPDEKDREDVLNEVLSKTVNSFRVKYRNALRGGTLDSAPDLDVLLLAKELDAAVVANDEGIEKWAQRLGLRFVNARDFPFILQEYLDLWDKKEGHHHHHH", "soluble on expression in E. coli": "soluble"}
{"sequence": "MTTAHFYCQYCTASLLGKKYVLKDDSPYCVTCYDRVFSNYCEECKKPIESDSKDLCYKDRHWHEGCFKCTKCNHSLVEKPFAAKDERLLCTECYSNECSSKCFHCKRTIMPGSRKMEFKGNYWHETCFVCENCRQPIGTKPLISKESGNYCVPCFEKEFAHYCNFCKKVITSGGITFCDQLWHKECFLCSDCRKDLCEEQFMSRDDYPFCMDCYNHLYANKCVACSKPISGLTGAKFICFQDSQWHSECFNCGKCSVSLVGKGFLTQNKEIFCQKCGSGMDTDI", "soluble on expression in E. coli": "soluble"}
{"sequence": "MAQRVQLTATVSENQLGQRLDQALAEMFPDYSRSRIKEWILDQRVLVNGKVCDKPKEKVLGGEQVAINAEIEEEARFEPQDIPLDIVYEDEDIIIINKPRDLVVHPGAGNPDGTVLNALLHYYPPIADVPRAGIVHRLDKDTTGLMVVAKTVPAQTRLVESLQRREITREYEAVAIGHMTAGGTVDEPISRHPTKRTHMAVHPMGKPAVTHYRIMEHFRVHTRLRLRLETGRTHQIRVHMAHITHPLVGDPVYGGRPRPPKGASEAFISTLRKFDRQALHATMLRLYHPISGIEMEWHAPIPQDMVELIEVMRADFEEHKDEVDWL", "soluble on expression in E. coli": "soluble"}
{"sequence": "MSLSHAETIKLGMSIPLSGSGANWGKGSEWLCAKAAEEIKAAGGVKVQGKVYDFECVGYDNKYNAAEGAKVAQALVSRDGVKYVAGSIGVAPVRALQSLTERRGVLLFTAAWGNSIKGPKFPLTFTQMNSVNEISEPMIAHVKKLHPEIKTVVLLNPNDATGQETEKVAKAAWEKNGVKVLASDWYERGTSEFQPIAAKLNSLKPDLVDLASTPPADAGLVFRELKALGWNGVKVVEVGTGADGLLATGKDAVDGTYLGAAVAVDGLSAHQKALNDGVKKVTGENINSVQIGFYDSVYAIKAAMEKAQSVDPQQVAKVMPDVKFQSFFGEVDFGGKSVYGSDQQMQLPVIITQISGTALKEVGRVQKEGHHHHHH", "soluble on expression in E. coli": "soluble"}
{"sequence": "MVALFQHSPYWQADGYGHSHRLKCQHFKQHRQYNDKLEISSNLGPQFNALLNILLNIVHPTLSHDTRRSKGLKIEGLLQSRELGNSWTVTMCIWVLKALQSSAPNKPLDWLDPMPCFQNLLARGTP", "soluble on expression in E. coli": "soluble"}
{"sequence": "SNVFARSSVLAAEMIDVFDRTHTEKELVFQSKELCRDFIHSRITREGLSWSKVELDLPEPRGVLVDVSVVLLKLGDELECMRPYVYRNIAKQLNISVSVEAVVSDAFLSVATEVIAMGITWGKVVAIYAVAAGLAVDCVRLGHPVMVHTIVDSLGEFVRRSLVPWLKKRGGWVDILKCVVNMDSRAHVHWLSTAVLTWREFIKTMYVYLTK", "soluble on expression in E. coli": "soluble"}
{"sequence": "MGSDKIHHHHHHMIVINMFSSANKVAGQGVGAVYTELMGLLKHDFSNEFEVNVNRYTRSDISHYHTIDPKFYLSTFSKKRGRKIGFVHFVPSTLDASLKLPRVARWTLDKYTLAFYKRMDQLVVVNPNFIPKLEAYGISRDKVTYIPNFVSQRTFHPVSTEKRQALRHANGFKPDDFVIFGAGQVQDRKGVSDFIKLAKQNPEFRFVWAGGFSFGRITEGYDHLKKAVAEAPANLDFTGIMPRETMIDYYNMADVFLLPSYEELFPMSVLEAFATGTPVMVRDLELYHQIITPYAITAVDVDDMQSRLRALADDHDLLATYATKSRQAAEVYDESRLEKVWHDFYLHQAALGKH", "soluble on expression in E. coli": "not soluble"}
{"sequence": "MREINMILYIHIPFCENKCGYCAFNSYENKHGLKEEYTQALCLDLKHALSQTDEPIESVFIGGGTPNTLSVKAFERIFESIYQHASLSLDCEITTEANPELITKAWCQGLKGLGINRLSLGVQSFREDKLLFLERQHSKNIAPAIETILKSGIENISIDLIYNTPLDNENSLKEELKLAKELPINHLSAYALSVEKNTNLEKNAKKPSCAHFDNVVREILEGFSFKQYEVSNYARNYQVKHNLAYWGAKDYLGCGAGAVGCVANERFFAKKLIENYIKDPLQRQVETLNKQDKRLEKLFLGLRCVLGVELSFLDENKVKFLIEENKAFIKNNRLIASDFFMADEMALWLLLEHHHHHH", "soluble on expression in E. coli": "not soluble"}
{"sequence": "MSLGQSAQLRSWLQAMPKGGDLHNHLSGSVYAEDYLQWASEDGACVQLDDLSLRAPPCVAGQVPARGLSTRDVALYGRVVDALSMRNHLASPSQPTGHGQFFSTFGKFDAVVRARVADTVAAVLEQAARDRVPYVEIIANPPQMDDAAQRMQALPWHGTDDAANLRELQDALPPLVQAAQRNLADLDAQVRHVLQCDQAQPRAACQVQYRYVPYVLRVLPAPQVFGQMALAHALVAAGGSRAVAVNIVAPEDNPVAVADYARHMAMFRFFAQRYPGVPLSLHAGELTLGLVPPAQLRSHIRQAVDAGARRIGHGVDLPYEDDAQELLQRMRRDQVAVEINLTSNDVILGVTGAAHPLAMYLRAGVPVVLSTDDAGVSRADMTHEYQRAVQEQGIEYPTLKQLARNGLTYSFLPGASLWSANGKAAQACATALQRETDDAGCQAFRQSSEKARLQWQLETDLAQYERMLMEQRKVQTEGHHHHHH", "soluble on expression in E. coli": "not soluble"}
{"sequence": "MAHHHHHHMEHLSVTKNSQMNNLAAYNNQEANYSLAAPNQEEYSENDLFYTFYDKFNEIFLFIQNLKENKNDLEDEVDDNLIKTLHNLCLEFLNYIKQINDFGHMNLSKNDQDLIIESYEKFVRQCKQYNDKPQVKQLENEISNLLDLLFNNTSGRHNSWRSGKKRKKREKEKKKLISPP", "soluble on expression in E. coli": "soluble"}
